Here are results for one molecule from patent US20220348635A1, “COMPOSITIONS AND METHODS FOR NEUROLOGICAL DISEASES” (Coda Biotherapeutics, Inc., priority 2019, published 2022).

What all share (assay type): cell-based
The nature of assay [1]: YFP quench plate reader assay, response to acetylcholine. The note with it: LX293T YFP reporter cells. The procedure, abridged:
(§1)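 Transiently transfected LX293T YFP-reporter cells; 30 min 37° C in 1×ECS (pH 7.2). Baseline 17 sec, ligand added (2× stock in ECS-NaI), fluorescence every 1.3 sec over 2 min. Dose-dependent % quench; […].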

Assay [2] is described as follows: YFP quench plate reader assay, response to RG3487. The note with it: LX293T YFP reporter cells. The procedure, abridged: as §1
A short description of assay [3]: High throughput electrophysiology in HEK293T cells, RG-3487. As to the method: To confirm the EC50s determined by plate reader as well as develop a better understanding of maximum current flow, the engineered receptors were subjected to high throughput electrophysiology system, as described below. For HEK293T studies, cDNAs encoding ion channels were cloned into pcDNA3.1 using standard recombination techniques. HEK293T cells from Clontech (Lenti-X™ 293T Cell Line) were cultured in DMEM supplemented with 10% FBS and 1% Pen/Strep to 40-50% confluence using standard cell culture protocols, transfected with ion channel plasmids at a concentration of 18 μg per 15 cm dish using Fugene 6, and grown for an additional 24 hours. Cells were then assayed on a electrophysiological system (IonFluxHT and/or Mercury, Fluxion Biosciences) in which dose-response relationships may be assessed through a microfluidics-based platform for establishing whole cell configurations. […] Data were then analyzed off-line using custom Python scripts to convert data to .csv format, re-plot traces, and apply QC measurements to reject unstable recordings (i.e. thresholding based on access resistance and/or standard deviation in baseline, as well as artifact rejection). Peak currents were then calculated and population data were fit using a 4-parameter logistic equation as described by the Hill Equation. […]

B1: Y115D, L131Q in SEQ ID NO: 33: CR-11 (Chemogenic receptor-11): SEQ ID NO: 33 with substitutions Y115D and L131Q (protein)
chain: MRCSPGGVWLALAASLLHVSLQGEFQRKLYKELVKNYNPLERPVANDSQPLTVYFSLSLLQIMDVDEKNQVLTTNIWLQMSWTDHYLQWNVSEYPGVKTVRFPDGQIWKPDILLDNSADERFDATFHTNVQVNSSGHCQYLPPGIFKSSCPMDLKNFPMDVQTCKLKFGSWSYGGWSLDLQMQEADISGYIPNGEWDLVGIPGKRSERFYECCKEPYPDVTFTVTMRRRMGYYLIQMYIPSLLIVILSWISFWINMDAAPARVGLGITTVLTMTTQSSGSRASLPKVSYVKAIDIWMAVCLLFVFSALLEYAAVNFVSRQHKELLRFRRKRRHHKSPMLNLFQEDEAGEGRFNFSAYGMGPACLQAKDGISVKGANNSNTTNPPPAPSKSPEEMRKLFIQRAKKIDKISRIGFPMAFLIFNMFYWIIYKIVRREDVHNQ
modifications: synthetic sequence of chimeric LGIC
B1: the “percent quench of YFP fluorescence, 10 uM ach” value in assay [1] (10 uM acetylcholine) is 9.47%. In addition, the “percent quench of YFP fluorescence, 100 uM ach” value in assay [1] (100 uM acetylcholine) is listed as 6.12%. Further, the “percent quench of YFP fluorescence, 1 mM ach” value in assay [1] (1 mM acetylcholine) is −1.56%. In addition, in assay [1] (3 mM acetylcholine), the “percent quench of YFP fluorescence, 3 mM ach” value is 17.57%. The “percent quench of YFP fluorescence, 30 nM fac” value in assay [2] (30 nM RG3487) is listed as 41.32%. For the same molecule, the “percent quench of YFP fluorescence, 100 nM fac” value in assay [2] (100 nM RG3487) stood at 59.51%. Further, in assay [2] (300 nM RG3487), the “percent quench of YFP fluorescence, 300 nM fac” value was 74.86%. For the same molecule, the “percent quench of YFP fluorescence, 10 uM fac” value in assay [2] (10 uM RG3487) is on record as 78.53%. In assay [2] (30 uM RG3487), the “percent quench of YFP fluorescence, 30 uM fac” value turned out to be 84.45%. Moreover, the “fold increased potency to RG-3487 compared to wild type receptor” value in assay [3] is given as “over 10 fold”.
